Data: patent US20180244738A1

Target: NuRD complex (nucleosome remodeling and deacetylase corepressor complex)
Assay: cell-based or functional assay

full-length SALL1, wild-type (transfected, pcDNA3.1-SALL1) (from UniProt Q9NSC2 1-1324)
tumor cell senescence (SA-β-Gal+ cells) in transfected MCF-7 and E0771 cells, 3 days: 40%
